In the DeepSol protein solubility set:

Test: soluble on expression in E. coli; label from the status in PepcDB or PDB records

Soluble on expression in E. coli, not soluble:
MFRRLGEKTTLYRAESPSQNSLASHHNSEVSLPSVDYSQEDRHSCNTLIGDEWSQNGDVIIQPLQKPSNTPTTQYERIITRREIANTESDLCKKLSLIVDLVSDFANDANRLYEGADELLKELRTKIRVYIYFLDVEMADVEKLLRFNVDRSTICDERIDWLLHFTKCHKEMRRVLNELSEEVCEDLESCLEMRAKGVIGKKPSSIILSTLSGMRNGMMTASKLLGCLPRQRA
MFSLLRKSLKSPAPKKVVPSQRTVSVAGRQVPITVRENPRATRITLRIEPGGRALKLTIPMGLHHRQVDDFLERHQGWLEGKLLKFSPDDGLRPGATIDIRGISHRIEHTGSLRGLTHIAKDADGVAVLKVSGAPEHLRRRIATFLKKEAKADLERLVAIHGRAAGRPVRSISMKDTRSRWGSCSHDGNLSFSWRIVMAPDRVIDYLAAHEVAHLSEMNHGPKFWALCEKLCPHTSEAKDWLKRHGSKLHAIDFDLEHHHHHH
MFSYSSSDWQRRFDEPEKPSRIIAHHDERGPFAKDRARVLHSAALRRLADKTQVVGPRDGDNPRTRLTHSLEVAQIARGIGTGLGLDADLCEMAGLTHDIGHPPYGHNGEKALAEIAQDCGGFEGNAQTLRILSKLEPKIVDDHDQSYGLNLTRAALDAACKYPRTKTNPDGSVNKKYGCYDEDAHILQWVRQGHEDTSACVEAQAMDFSDDIAYSVHDVEDGIVSGRVHLGVLWDFVELAELAEKGARAFGGTPEALVDAADHLRELPIISAAADFDGSLRGYVDLKAMTSQLVGRYVGAVIEASRAANPTGVFGRSTGQVVVPDQVLAEVTLLKTIAVLYVMDDPTHRQRQDRQRERIYRVYDYLVAGGRGALDPMFRLWWEQAESEAQRQRVIIDNISSMTESRLERVAKQSAELSSFMG
MFTIRKATSDDCKLINELANQVFPATYKEILSTEQLDYMMEWMYAPENIRKQMEEEGHVYFIAYQGDEPCGYVSVQPQDADVFHLQKIYVLPGFQGAHLGSKLFDHAVQYIKEIHPSPCLMELNVNRNNKALHFYEHKGMKKLREGDFPIGNGYYMNDYIMGLEL
MFVDKNGVNMEKKLVKQQLLTGERALFASKDLRIEDSIFDDGESPLKESSNIELVNSSFKWKYPLWYCNNVNVKDCYFFEMGRAGVWYTNDINVEDTIIEAPKNFRRCNRLGLKNVEFVNAEETLWSCDNVTMTNVVAKGNYFAMNSNDMKIDGLKLVGNYPFDGSKNLEIRNSRLMSKDAFWNAENITVYDSYISGEYLGWNSKNLTFINCTIESLQGLCYIDNLVMKNCKLINTTLAFEYSTVDADITSRVDSVLNPTSGTITADSIDKLIIEKDKVDPSLTKIVCRN
MGCAGSTQSQADGSVKKIRKPKPWKHTQPITKAELMKLREEFWDTAPHYGGRKEIWDALRAAAEADISLAQAIVDSAGVIVQNTDLTVCYDERGAKYELPKYVLSEPTNLEEEN
MGCAQSTPVDQPARQQPQATQQKSVEPAVVKKPVEPARVEPKVEVPSTKPSEVPHVEKAQSINRGQPGDGSGPLQQPSPAMPGAKQGGTKERRAAAGSEAVRDQIRKLAVGGPQAKEEKEKIYEVSDSEDEELEDDPSERTTLSGDWYKPQEVTDAILEALKRNFVFKGIPQNHLVEVVGRMYGISFKSGAVVLQQGALPKQDDCMYYLQQGEAEVVISGGADASKNHGEERKVDGHTVRIPQKPGWLFGDVALLFHSPRTASVVAKTNITVWAMDRRTFLKFVMKHAQGARALRFLRKLPLLKGLSDNDLIRAASRMPQRMYEDGQPLIRIGERGDELFLIRYGKVRVFRPDGNGGRVEVAVLGRGQFVGERAVINDKLRSADCVAQGQVQVVVLKKREFMDLDNPLLAWMLDYDAVSAVIRSLPQFKGLKQEQMENILDRFDAREELMQGDTILNQGDMLEKLYVVKIGEIALFRNDERVEDPNFVHEIAGFSYFGETAITQTGKCPYTIRVASESLHLLSLPKRQVDSFMGRDTGLKNEEAVVAALKKSKFLANMTDPEFKELLKACEQTDYNPGEVIAVANSSVTNKIFLVKSGEVMVVAADLALPDTGEVDVRKLTGSERQRLLAGSIFNDKALNSPETASLEASLVAGTPCGIITFTTSDVERVMGGRAMSRSRNAMPGAAAAVEERKFPRVKFTELEFHRIIGTGQFGLVRVVRNIKTNEVYALKVMHKAPIVESKQIEHVINERKILEEACTHPFCVRLCGAYQDKASLYLLQEWVPGGELFHHLDVEGAFDEPTAMFYAANVLLALEFLHAKGIVYRDLKPENLLLDTQGYIKMADFGFAKYIGGDKTYTICGTPDYQAPEVIMRRGTTKAADYWALGVLIFEMLVGDPPFKSLTGDPWDTFRRTLSGRFYVPNFISDQAADLIFKLLQVNPDKRLGSDKRLGAEEIKRHRWFSRIDWRALEQKKLPSPFRPRVRNPLDTSNFDNFDNVDLEPPPVPADRAEKHSQQWELWDWIDDSK
MGDSAPARIDTLEIKLLFAGDIMTHGPQIESAKCEGGRVYDFSSSFDTLASRIGAADLAIGNLETTFAGAPYSGYPTFSSPDAMGEALKNAGFDVLTTANNHTADKGKKGIIRTLDMLDSLGIAHTGSYRDIFDRDKMTPLILEVKGVRIAILAYTYGTNGMPVPAPTWVDPIDTVMIKKDLLRADSLGADYRIVQIHWGIEYRKEPDSEQLELARKLHRYGADAIIGSHPHVVQGSQWLKSDSKTSFVIYSMGNFISNQRKPAATRGGMLLSLTLRKVGDRITTHPDYQYVFVNKRTPQGKRVYRLLPVDPFSSDTLPSLPPEEQRDYKEFAKYYQMIPLVLIEREDNRIRNRLQVSQRAFLEHHHHHH
MGEKEKEFAVIGLGRFGGSICRELAQLGMEVMAIDSDEDKINEFANIASHAVIADSTDEMVLKSLGIRNFDHVVVAIGDNLNSSILTTLILKELGVKNITVKAQNDYHEKVLSKIGADHIVHPERDMGKRIANNIASSNVLDYLELSDEHSIVEIIANKKIDGHSLIELDIRAKFGLNIVAIKRGKEVIVSPRATENIQAGDILIVIGHDDEVDRFKHFLR
MGEYERTVFTRRITGVETEYGITCVGDNSRRRLGADEAARYMFRPVVEEWGSSNVFIPNGARLYLDVGSHPEYASAECDSLSQLIAYDRAGDKIVDQLAQRAETALATEGIGGRVYLFKNNLDSLGNSYGCHENYLVSRDVVLKTLGRQLLPFLITRQLICGAGSIQDGQFQVSQRADHVWEGVSSATTRSRPIINTRDEPHADSHRFRRLHVIVGDSNMSETTCALKIGSTQLVLEMIEAGALSHDLELSNEIAAIREISRDITGMAPVPLKAGTSMPAIEIQRRYAEKALCWLEQRGDTEGTPNAEMHKVVSLWLDTISAIESNDLQALSRDIDWAIKLSLLRRAQRRIGCSESDFTHPKLAQLDLAYHDIRAGRGVFPVLESKQLVNRWINDTDIEQATRIAPSTTRAALRGEFLTAAKKLQAPISADWLRLKVNRPEPQIIELTDPFENTDDRVDQLISYMRNHAASYSTDTAIS
MGFTTVAKEEKVTKVAEVFHSVAAKYDIMNDLMSGGIHRLWKRFTIDCSGARPGQRILDLGGGTGDLTAKFSRIVGDQGHVVLADINNSMLNVGRDKLRDNGIVGNVHYVQANAEELPFPDDYFDVITISFCLRNVTDKDKALRSMFRVLKPGGRLLVLEFSKPVLEPLSKVYDAYSFHLLPKMGELVANDAESYRYLAESIRMHPDQETLEGMMQDAGFENTKYYNLTGGIVALHRGLEHHHHHH

Soluble on expression in E. coli, soluble:
MFRRPDDDDDDYSGRKVIKPKPIAEKYAKKLGSEFSTGKTFVTGSDKSQKDFYGSQQVRNDVMKSSDSGGAPLTEDEKNKLSAKILKAEMKGDTDLVKKLKRKLESGISGDDEPPKSKSKEVTMMRRDREGNILPASSRRSDSDRHGEGSSRMRREYEKSQDLDSMVREEKTGTAGDQLRLFERSLIKSSKIRRHDDESVDDIAEMQKGKKKSDEKDKKRKEKESIKEHKRIERSFDDCSRCIDSSRLKKHNIIAVGINTYLAVVEWDGLDDEHLIIVPTQHCSSTIQLDENVWDEMRLWRKGLVAVWKSQNRDCIFFEMSRHVDSNPHVFIECVPVEQEIGDMASIYFKKAINECEGEYMDNKKLIETKDLRRQIPKGFSYFAVDFGLSNGFAHVIESHDHFPSTFATEIIAGMLDLPPKKWRKRETDEMSKQKSRAENFKKLWEPVDWTKRLKNDSTK
MGAQSHSLEITSSVSAEKIFSGIVLDVDTVIPKAATGAYKSVEVKGDGGAGTVRIITLPEGSPITTMTVRTDAVNKEALSYDSTVIDGDILLGFIESIETHMVVVPTADGGSITKTTAIFHTKGDAVVPEENIKFADAQNTALFKAIEAYLIAN
